Reference: patent US20260274985A1 (MYTHIC THERAPEUTICS, published 2026)
Substitutions are numbered along the chain they refer to.

T1: Human TROP2 Protein, His Tag (Acro Biosystems) (human, UniProt P09758 27-274)
T1 construct: not shown: His tag
T1 sequence (looked up): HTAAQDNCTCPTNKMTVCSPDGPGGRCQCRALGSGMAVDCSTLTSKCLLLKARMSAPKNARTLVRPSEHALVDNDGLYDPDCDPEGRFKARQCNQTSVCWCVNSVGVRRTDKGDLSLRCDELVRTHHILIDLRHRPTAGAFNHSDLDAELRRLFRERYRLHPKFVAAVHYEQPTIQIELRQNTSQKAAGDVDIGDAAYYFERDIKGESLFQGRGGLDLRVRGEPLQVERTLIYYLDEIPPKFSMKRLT

T2: TROP2 on TROP2-positive NCI-H1975 cells (human, UniProt P09758 27-323)
T2 sequence: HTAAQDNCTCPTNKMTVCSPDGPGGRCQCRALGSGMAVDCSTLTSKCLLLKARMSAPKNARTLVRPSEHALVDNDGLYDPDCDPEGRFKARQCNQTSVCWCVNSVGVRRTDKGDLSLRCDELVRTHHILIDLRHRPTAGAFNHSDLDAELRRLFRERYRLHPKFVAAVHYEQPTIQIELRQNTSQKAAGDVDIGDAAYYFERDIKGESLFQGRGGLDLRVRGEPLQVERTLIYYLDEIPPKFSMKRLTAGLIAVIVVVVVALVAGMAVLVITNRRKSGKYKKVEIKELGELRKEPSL

T3: Human TROP2 Protein, His Tag (Acro Biosystems) (human, UniProt P09758 27-274)
T3 construct: also called TACSTD2; not shown: His tag
T3 sequence (looked up): T1 sequence (looked up)

T4: TROP2 on TROP2-positive NCI-H1975 cells (human, UniProt P09758 27-323)
T4 construct: whole, on cells
T4 sequence (looked up): T2 sequence

B1: MYT13262 (antibody, V domains shown)
VH: QVQLVQSGAEVKKPGASVKVSCKASGYTFTTAGMQWVRQAPGQGLEWMGWINTHSGVPKYAEDFKGRVTISADTSTSTAYLQLSSLKSEDTAVYYCARSGHGSSYWYFDVWGQGTLVTVSS
VL: DIQMTQSPSSLSASVGDRVTITCKASQDVSTAVAWYQQKPGKAPKLLIYSAHYRYTGVPSRFSGSGSGTDFTLTISSLQPEDFAVYYCQQHYITPLTFGQGTKLEIK
notes: Full-length IgG from Expi293 supernatant; also called datopotamab heavy chain and light chain pairing variant
B2: MYT13270 (antibody, V domains shown)
VH: B1 VH
VL: B1 VL with H52S, Q90H
notes: as for B1
B3: MYT13261 (antibody, V domains shown)
VH: B1 VH with R98H, H101F
VL: B1 VL
notes: as for B1
B4: MYT13259 (antibody, V domains shown)
VH: B1 VH with H101F, S104H
VL: B1 VL with V29H, H52S
notes: as for B1
B5: MYT13269 (antibody, V domains shown)
VH: B1 VH with R98H, H101F
VL: B1 VL with H52S, Q90H
notes: as for B1
B6: MYT13258 (antibody, V domains shown)
VH: B1 VH
VL: B1 VL with V29H, H52S
notes: as for B1
B7: MYT13271 (antibody, V domains shown)
VH: B1 VH with H101F, S104H
VL: B1 VL with H52S, Q90H
notes: as for B1
B8: MYT13304 (antibody, V domains shown)
VH: QVQLQESGPGLVKPSETLSLTCTVSGGSISSYGVHWIRQPPGKGLEWIGVIWTSGVTDYNSALMGRVTISVDTSKNQFSLKLSSVTAADTAVYYCARDGDYDHYTMDYWGQGTLVTVSS
VL: DIVMTQSPDSLAVSLGERATINCRASKSVSTSGYSYMHWYQQKPGQPPKLLIYLASNLESGVPDRFSGSGSGTDFTLTISSLQAEDVAVYYCQHSRELPYHFGQGTKLEIK
notes: Full-length IgG from Expi293 supernatant; also called hu7E6SVG heavy chain and light chain pairing variant
B9: MYT13280 (antibody, V domains shown)
VH: B8 VH with H103R, M106H
VL: B8 VL with E59H, H101T
notes: as for B8
B10: MYT13428 (antibody, human IgG1, V domains shown)
VH: QVQLQQSGSELKKPGASVKVSCKASGYTFTNYGMNWVKQAPGQGLKWMGWINTYTGEPTYTDDFHGRFAFSLDTSVSTAYLQISSLKADDTAVYFCARGGFGSSYWYFDVWGQGSLVTVSS
VL: B1 VL with M4L, T20S, S30H, T31I, A51H, H52S, S60D, I93H, Q100A, L104V
notes: also called sacituzumab HC-LC pairing variant
B11: MYT13369 (antibody, human IgG1, V domains shown)
VH: B10 VH with D62H, H65K
VL: B1 VL with M4L, T20S, S30H, T31I, V33H, H52S, S60D, Q100A, L104V
notes: as for B10
B12: MYT13370 (antibody, human IgG1, V domains shown)
VH: B10 VH with D63H, H65K
VL: B1 VL with M4L, T20S, S30H, T31I, V33H, H52S, S60D, Q100A, L104V
notes: also called sacituzumab HC-LC pairing variant; Sacituzumab pH variant
B13: MYT13427 (antibody, human IgG1, V domains shown)
VH: B10 VH with F64H, H65K
VL: B1 VL with M4L, T20S, S30H, T31I, A51H, H52S, S60D, I93H, Q100A, L104V
notes: as for B12
B14: MYT11614 (antibody, human IgG1, V domains shown)
VH: B10 VH with H65K
VL: B1 VL with M4L, T20S, S30H, T31I, H52S, S60D, Q100A, L104V
notes: Human IgG1 heavy chain constant domain and Kappa light chain constant domain; also called Sacituzumab LC variant
B15: MYT11670 (antibody, human IgG1, V domains shown)
VH: B1 VH with H101F, S104H
VL: B1 VL with H52S
notes: Human IgG1 heavy chain constant domain and Kappa light chain constant domain; also called Datopotamab pH variant
B16: MYT11704 (antibody, human IgG1, V domains shown)
VH: B8 VH with H103R
VL: B8 VL with H101T
notes: Human IgG1 heavy chain constant domain and Kappa light chain constant domain; also called hu7E6SVG WT; hu7E6SVG
B17: MYT12459 (antibody, human IgG1, V domains shown)
VH: B8 VH with H103R
VL: B8 VL with E59H, Q93H, E97H, H101T
notes: Human IgG1 heavy chain constant domain and Kappa light chain constant domain; also called hu7E6SVG pH variant
B18: MYT13393 (antibody, V domains shown)
VH: B10 VH with D62H, H65K
VL: B1 VL with M4L, T20S, T31I, V33H, H52S, Y53H, S60D, Q100A, L104V
notes: Sacituzumab HC-LC pairing variant
B19: MYT13394 (antibody, V domains shown)
VH: B10 VH with D63H, H65K
VL: B1 VL with M4L, T20S, T31I, V33H, H52S, Y53H, S60D, Q100A, L104V
notes: as for B18
B20: MYT13397 (antibody, V domains shown)
VH: B10 VH with H65K, G66H
VL: B1 VL with M4L, T20S, T31I, V33H, H52S, Y53H, S60D, Q100A, L104V
notes: as for B18
B21: MYT13396 (antibody, V domains shown)
VH: B10 VH
VL: B1 VL with M4L, T20S, T31I, V33H, H52S, Y53H, S60D, Q100A, L104V
notes: as for B18
B22: MYT13409 (antibody, V domains shown)
VH: B10 VH with D62H, H65K
VL: B1 VL with M4L, T20S, T31I, A51H, S60D, Q100A, L104V
notes: as for B18
B23: MYT13410 (antibody, V domains shown)
VH: B10 VH with D63H, H65K
VL: B1 VL with M4L, T20S, T31I, A51H, S60D, Q100A, L104V
notes: as for B18
B24: MYT13411 (antibody, V domains shown)
VH: B10 VH with F64H, H65K
VL: B1 VL with M4L, T20S, T31I, A51H, S60D, Q100A, L104V
notes: as for B18
B25: MYT13408 (antibody, V domains shown)
VH: B10 VH with Y60H, H65K
VL: B1 VL with M4L, T20S, T31I, A51H, S60D, Q100A, L104V
notes: as for B18
B26: MYT13425 (antibody, human IgG1, V domains shown)
VH: B10 VH with D62H, H65K
VL: B1 VL with M4L, T20S, S30H, T31I, A51H, H52S, S60D, I93H, Q100A, L104V
notes: IgG; also called Sacituzumab HC-LC pairing variant
B27: MYT13427 (antibody, human IgG1, V domains shown)
VH: B10 VH with F64H, H65K
VL: B1 VL with M4L, T20S, S30H, T31I, A51H, H52S, S60D, I93H, Q100A, L104V
notes: as for B26
B28: MYT13428 (antibody, human IgG1, V domains shown)
VH: B10 VH
VL: B1 VL with M4L, T20S, S30H, T31I, A51H, H52S, S60D, I93H, Q100A, L104V
notes: as for B26

Biological target: T1, Human TROP2 Protein, His Tag (Acro …)
Assay: BLI (Octet)

| Binder | binding result |
| --- | --- |
| B1 | binds |
| B2 | binds |
| B3 | binds |
| B4 | binds |
| B5 | binds |
| B6 | binds |
| B7 | binds |
| B8 | binds |
| B9 | binds |

Biological target: T2, TROP2 on TROP2-positive NCI-H1975 cells
Assay: cell-based or functional assay

| Binder | FOW H1975 (10 nM) [fold over parent antibody] |
| --- | --- |
| B10 | 1.55 |
| B11 | 1.44 |
| B12 | 1.43 |
| B13 | 1.56 |

Biological target: T2, TROP2 on TROP2-positive NCI-H1975 cells
Assay: cell-based or functional assay
Remark: another data set of the same source

| Binder | Cytotox Fold over datopotamab (FOD) [fold over datopotamab] |
| --- | --- |
| B14 | 1.35 |
| B10 | 1.18 |
| B11 | 1.33 |
| B12 | 1.28 |
| B15 | 1.41 |
| B13 | 1.19 |
| B16 | 1.22 |
| B17 | 1.35 |

Biological target: T3, Human TROP2 Protein, His Tag (Acro …)
Assay: BLI (Octet) [1/2]

| Binder | binding result |
| --- | --- |
| B18 | binds |
| B19 | binds |
| B20 | binds |
| B21 | binds |

Biological target: T3, Human TROP2 Protein, His Tag (Acro …)
Assay: BLI (Octet) [2/2]

| Binder | binding result |
| --- | --- |
| B22 | binds |
| B23 | binds |
| B24 | binds |
| B25 | binds |

Biological target: T2, TROP2 on TROP2-positive NCI-H1975 cells
Assay: binding to NCI-H1975 cells at pH 6.4, maximal MFI

| Binder | Max MFI (@ pH 6.4)-H1975 [MFI] |
| --- | --- |
| B14 | 19400 |
| B10 | 6720 |
| B11 | 17100 |
| B12 | 13400 |
| B15 | 20000 |
| B13 | 6110 |
| B16 | 31500 |
| B17 | 18700 |

Biological target: T4, TROP2 on TROP2-positive NCI-H1975 cells
Assay: binding to TROP2-positive NCI-H1975 cells at pH 6.7

| Binder | IC50 [nM] |
| --- | --- |
| B26 | 2.66 |
| B27 | 4.39 |
| B28 | 8.29 |

Biological target: T4, TROP2 on TROP2-positive NCI-H1975 cells
Assay: binding to TROP2-positive NCI-H1975 cells at pH 7.4

| Binder | IC50 [nM] |
| --- | --- |
| B26 | 0.81 |
| B27 | 1 |
| B28 | 1.56 |

Biological target: T1, Human TROP2 Protein, His Tag (Acro …)
Assay: Octet (BLI); antigen and pH not given

| Binder | Kd [nM] | Octet response at 33.33 nM (Y-Axis) nm [nm] |
| --- | --- | --- |
| B26 | 3.9 | 0.135 |
| B27 | 2.12 | 0.134 |
| B28 | 2.08 | 0.141 |
